According to IntAct's records for PubMed 28062662:

B1: Glutaryl-CoA dehydrogenase, mitochondrial (Homo sapiens), Q92947 (parent)
chain: MALRGVSVRLLSRGPGLHVLRTWVSSAAQTEKGGRTQSQLAKSSRPEFDWQDPLVLEEQLTTDEILIRDTFRTYCQERLMPRILLANRNEVFHREIISEMGELGVLGPTIKGYGCAGVSSVAYGLLARELERVDSGYRSAMSVQSSLVMHPIYAYGSEEQRQKYLPQLAKGELLGCFGLTEPNSGSDPSSMETRAHYNSSNKSYTLNGTKTWITNSPMADLFVVWARCEDGCIRGFLLEKGMRGLSAPRIQGKFSLRASATGMIIMDGVEVPEENVLPGASSLGGPFGCLNNARYGIAWGVLGASEFCLHTARQYALDRMQFGVPLARNQLIQKKLADMLTEITLGLHACLQLGRLKDQDKAAPEMVSLLKRNNCGKALDIARQARDMLGGNGISDEYHVIRHAMNLEAVNTYEGTHDIHALILGRAITGIQAFTASK
partner: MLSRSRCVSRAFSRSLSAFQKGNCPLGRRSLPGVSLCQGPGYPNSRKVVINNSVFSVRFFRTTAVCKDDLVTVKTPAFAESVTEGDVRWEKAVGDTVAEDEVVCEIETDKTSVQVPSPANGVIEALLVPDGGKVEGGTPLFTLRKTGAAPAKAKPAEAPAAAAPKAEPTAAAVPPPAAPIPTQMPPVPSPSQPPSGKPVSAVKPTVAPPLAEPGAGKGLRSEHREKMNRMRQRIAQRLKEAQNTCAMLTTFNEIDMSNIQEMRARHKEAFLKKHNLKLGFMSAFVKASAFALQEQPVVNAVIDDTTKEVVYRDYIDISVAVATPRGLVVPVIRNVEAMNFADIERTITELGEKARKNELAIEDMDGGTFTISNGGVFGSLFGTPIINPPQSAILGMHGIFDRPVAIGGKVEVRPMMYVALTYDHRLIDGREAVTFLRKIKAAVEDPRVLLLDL

Variants of: B1
Settings: with odo2_human DLST
G244C was tested, and the “effect of a mutation on the interaction” value was “increasing interaction strength”. R227P was tested, and the “effect of a mutation on the interaction” value was “decreasing interaction strength”. In the case of P248L, the “effect of a mutation on the interaction” value is reported as “increasing interaction strength”. With S119L the “effect of a mutation on the interaction” value was “increasing interaction strength”. In the case of P217L, the “effect of a mutation on the interaction” value is reported as “decreasing interaction strength”. For Y155H, the “effect of a mutation on the interaction” value was “decreasing interaction strength”. For M263V, the “effect of a mutation on the interaction” value was “increasing interaction strength”. With R355H the “effect of a mutation on the interaction” value was “decreasing interaction strength”. In the case of P278S, the “effect of a mutation on the interaction” value is reported as “increasing interaction strength”. R161Q was tested, and the “effect of a mutation on the interaction” value was “increasing interaction strength”.
